According to PMC3597501 (2013):

Target: T1, GST-TUD1 (Oryza sativa subsp. japonica (Rice), UniProt Q10PI9)
T1 chain: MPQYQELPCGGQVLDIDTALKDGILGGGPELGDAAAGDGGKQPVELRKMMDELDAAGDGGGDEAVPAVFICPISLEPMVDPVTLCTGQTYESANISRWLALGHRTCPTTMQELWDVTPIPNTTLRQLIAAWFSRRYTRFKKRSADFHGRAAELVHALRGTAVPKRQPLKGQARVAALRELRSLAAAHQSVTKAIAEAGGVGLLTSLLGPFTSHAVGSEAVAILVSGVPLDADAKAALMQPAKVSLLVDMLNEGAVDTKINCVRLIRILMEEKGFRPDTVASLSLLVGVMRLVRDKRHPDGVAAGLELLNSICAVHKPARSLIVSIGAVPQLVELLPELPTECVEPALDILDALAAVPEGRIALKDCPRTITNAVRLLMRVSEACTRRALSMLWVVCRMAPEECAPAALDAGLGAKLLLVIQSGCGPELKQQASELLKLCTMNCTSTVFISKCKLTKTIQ
Assay: GST pull-down

binding result: binds
B1: D1-tagged His (purified D1 fusion protein) (protein)
chain: MGSSCSRSHSLSEAETTKNAKSADIDRRILQETKAEQHIHKLLLLGAGESGKSTIFKQIKLLFQTGFDEAELRSYTSVIHANVYQTIKILYEGAKELSQVESDSSKYVISPDNQEIGEKLSDIDGRLDYPLLNKELVLDVKRLWQDPAIQETYLRGSILQLPDCAQYFMENLDRLAEAGYVPTKEDVLYARVRTNGVVQIQFSPVGENKRGGEVYRLYDVGGQRNERRKWIHLFEGVNAVIFCAAISEYDQMLFEDETKNRMMETKELFDWVLKQRCFEKTSFILFLNKFDIFEKKIQKVPLSVCEWFKDYQPIAPGKQEVEHAYEFVKKKFEELYFQSSKPDRVDRVFKIYRTTALDQKLVKKTFKLIDESMRRSREGT
